Measurements published in PMC3431237.

How the values were obtained:
[1] = target: T1, PbrR (Cupriavidus metallidurans CH34 (plasmid pMOL30)) (UniProt Q58AJ5); test: DNase I footprinting; conditions: not given in material (gel retardation and DNase I protection as in cited refs 36 and 37)
T1 sequence: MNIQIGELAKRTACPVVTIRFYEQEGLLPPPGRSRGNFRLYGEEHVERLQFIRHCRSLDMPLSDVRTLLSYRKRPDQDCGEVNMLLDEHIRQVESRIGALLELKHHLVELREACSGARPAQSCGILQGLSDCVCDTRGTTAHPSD

[2] = target: T1, PbrR (Cupriavidus metallidurans CH34 (plasmid pMOL30)); test: EMSA; conditions: not given in material (gel retardation and DNase I protection as in cited refs 36 and 37)

GCGAATGGTCACCACCGGGCATGCGGTGCGCTTGGCAAGCTCGCCGATCTGGATATTCATGGCGTCGGATGGGAGATGTCTTGACTCTATAGTAACTAGAGGGTGTTAAATCGGCAACGCGAGATGAATACACACAAGGGGTTGCCATGAGCGAATGTGGCTCGAAGGGATGTGGCTGCGCTTCCGTTGCGACGCGCAACCCAGAACCGAGCACGGTTGGCGCGGGGCTGAAGCAGGCGCGCTACCGAATCGAAAACATGGACTGTCCGACCGAAGAGGCGCTGATTCGCGACAAGC (double strand) [PpbrA 296 bp PCR product]
binding [1]: binds | binding [2]: binds
